This passage reports Kd results from PMC5932227.

In the test the target is cynomolgus OX40, native, on activated cynomolgus CD4 T cells (cynomolgus (endogenous in primary CD4 T cells)). The experiment in a line: flow cytometry on cells.

The term Kd denotes the constant that tells how readily two partners part at equilibrium.

In turn, “MEDI6383, human OX40 ligand IgG4P Fc fusion protein” registered a Kd of 24 pM.
